{
  "source": "patent US20210060072A1",
  "about": "(CRISPR THERAPEUTICS, published 2021)",
  "binders": {"B1": {"name": "anti-CD70 CAR (CD70B scFv with 41BB; CD8 transmembrane domain, 41BB co-stimulatory domain, CD3z signaling domain) (other)", "chain": "QVQLVQSGAEVKKPGASVKVSCKASGYTFTNYGMNWVRQAPGQGLKWMGWINTYTGEPTYADAFKGRVTMTRDTSISTAYMELSRLRSDDTAVYYCARDYGDYGMDYWGQGTTVTVSSGGGGSGGGGSGGGGSGDIVMTQSPDSLAVSLGERATINCRASKSVSTSGYSFMHWYQQKPGQPPKLLIYLASNLESGVPDRFSGSGSGTDFTLTISSLQAEDVAVYYCQHSREVPWTFGQGTKVEIKSAAAFVPVFLPAKPTTTPAPRPPTPAPTIASQPLSLRPEACRPAAGGAVHTRGLDFACDIYIWAPLAGTCGVLLLSLVITLYCNHRNRKRGRKKLLYIFKQPFMRPVQTTQEEDGCSCRFPEEEEGGCELRVKFSRSADAPAYQQGQNQLYNELNLGRREEYDVLDKRRGRDPEMGGKPRRKNPQEGLYNELQKDKMAEAYSEIGMKGERRRGKGHDGLYQGLSTATKDTYDALHMQALPPR"}},
  "biological_target": "T1, CD70 on CD70-expressing cancer cell lines (A498, ACHN, SK-OV-3, Hs-766T, NCI-H1975, Calu-1, DU 145, MM.1S, … (human, UniProt P32970 1-193))",
  "T1 sequence (looked up)": "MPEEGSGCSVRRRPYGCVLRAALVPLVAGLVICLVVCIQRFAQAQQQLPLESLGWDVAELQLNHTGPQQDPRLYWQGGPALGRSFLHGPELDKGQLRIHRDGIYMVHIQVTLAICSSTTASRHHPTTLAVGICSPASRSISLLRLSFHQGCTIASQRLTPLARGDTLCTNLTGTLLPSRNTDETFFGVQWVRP",
  "assay": "cell-based or functional assay",
  "data": [
    {"binder": "B1", "values": [
      {"measurement": "cell killing, 24 hours of co-culture, A498, ACHN, SK-OV-3 and Hs-766T cells, 1:1 effector:target cell ratio (3xKO and 4xKO CD70 CAR+ T cells)", "result": "> 50", "unit": "%"},
      {"measurement": "cell killing, 24 hours of co-culture, A498, ACHN, SK-OV-3 and Hs-766T cells, 4:1 effector:target cell ratio (3xKO and 4xKO CD70 CAR+ T cells)", "result": "> 60", "unit": "%"},
      {"measurement": "cell killing, 24 hours of co-culture, NCI-H1975, Calu-1 and DU 145 cells, 4:1 effector:target cell ratio", "result": "> 30", "unit": "%"},
      {"measurement": "cell killing, 96 hours of co-culture, SKOV-3, Hs-766T and NIC-H1975 cells, 1:1 effector:target cell ratio", "result": "> 80", "unit": "%"}
    ]}
  ]
}
